Experimental data: IntAct's records for PubMed 21252943

B1: E3 ubiquitin-protein ligase RNF4 (Rattus norvegicus (Rat)), O88846 (parent)
chain: MSTRNPQRKRRGGAVNSRQTQKRTRETTSTPEISLEAEPIELVETVGDEIVDLTCESLEPVVVDLTHNDSVVIVEERRRPRRNGRRLRQDHADSCVVSSDDEELSKDKDVYVTTHTPRSTKDEGTTGLRPSGTVSCPICMDGYSEIVQNGRLIVSTECGHVFCSQCLRDSLKNANTCPTCRKKINHKRYHPIYI

Variants of: B1
Conditions: with sumo2_human SUMO2, P61956
Chain of sumo2_human SUMO2, P61956 (P61956 whole entry): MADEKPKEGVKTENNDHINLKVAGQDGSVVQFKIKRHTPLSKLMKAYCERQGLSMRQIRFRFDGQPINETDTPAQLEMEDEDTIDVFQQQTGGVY

Effect of a mutation on the interaction, disrupting interaction:
MSTRNPQRKRRGGAVNSRQTQKRTRETTSTPEISLEAEPIELVETVGDEIVDLTCESLEPVVVDLTHNDSVVAVEERRRPRRNGRRLRQDHADSCVVSSDDEELSKDKDVYVTTHTPRSTKDEGTTGLRPSGTVSCPICMDGYSEIVQNGRLIVSTECGHVFCSQCLRDSLKNANTCPTCRKKINHKRYHPIYI
MSTRNPQRKRRGGAVNSRQTQKRTRETTSTPEISLEAEPIELVETVGDEIVDLTCESLEPVVVDLTHNDSVAIVEERRRPRRNGRRLRQDHADSCVVSSDDEELSKDKDVYVTTHTPRSTKDEGTTGLRPSGTVSCPICMDGYSEIVQNGRLIVSTECGHVFCSQCLRDSLKNANTCPTCRKKINHKRYHPIYI
MSTRNPQRKRRGGAVNSRQTQKRTRETTSTPEISLEAEPIELVETVGDEIVDLTCESLEPVVVDLTHNDSAVIVEERRRPRRNGRRLRQDHADSCVVSSDDEELSKDKDVYVTTHTPRSTKDEGTTGLRPSGTVSCPICMDGYSEIVQNGRLIVSTECGHVFCSQCLRDSLKNANTCPTCRKKINHKRYHPIYI
MSTRNPQRKRRGGAVNSRQTQKRTRETTSTPEISLEAEPIELAETVGDEIVDLTCESLEPVVVDLTHNDSVVIVEERRRPRRNGRRLRQDHADSCVVSSDDEELSKDKDVYVTTHTPRSTKDEGTTGLRPSGTVSCPICMDGYSEIVQNGRLIVSTECGHVFCSQCLRDSLKNANTCPTCRKKINHKRYHPIYI
MSTRNPQRKRRGGAVNSRQTQKRTRETTSTPEISLEAEPAELVETVGDEIVDLTCESLEPVVVDLTHNDSVVIVEERRRPRRNGRRLRQDHADSCVVSSDDEELSKDKDVYVTTHTPRSTKDEGTTGLRPSGTVSCPICMDGYSEIVQNGRLIVSTECGHVFCSQCLRDSLKNANTCPTCRKKINHKRYHPIYI
MSTRNPQRKRRGGAVNSRQTQKRTRETTSTPEISLEAEPIELVETVGDEAVDLTCESLEPVVVDLTHNDSVVIVEERRRPRRNGRRLRQDHADSCVVSSDDEELSKDKDVYVTTHTPRSTKDEGTTGLRPSGTVSCPICMDGYSEIVQNGRLIVSTECGHVFCSQCLRDSLKNANTCPTCRKKINHKRYHPIYI
MSTRNPQRKRRGGAVNSRQTQKRTRETTSTPEISLEAEPIELVETVGDEIVDLTCESLEPVAVDLTHNDSVVIVEERRRPRRNGRRLRQDHADSCVVSSDDEELSKDKDVYVTTHTPRSTKDEGTTGLRPSGTVSCPICMDGYSEIVQNGRLIVSTECGHVFCSQCLRDSLKNANTCPTCRKKINHKRYHPIYI
MSTRNPQRKRRGGAVNSRQTQKRTRETTSTPEISLEAEPIELVETVGDEIVDLTCESLEPVVADLTHNDSVVIVEERRRPRRNGRRLRQDHADSCVVSSDDEELSKDKDVYVTTHTPRSTKDEGTTGLRPSGTVSCPICMDGYSEIVQNGRLIVSTECGHVFCSQCLRDSLKNANTCPTCRKKINHKRYHPIYI
MSTRNPQRKRRGGAVNSRQTQKRTRETTSTPEISLEAEPIEAVETVGDEIVDLTCESLEPVVVDLTHNDSVVIVEERRRPRRNGRRLRQDHADSCVVSSDDEELSKDKDVYVTTHTPRSTKDEGTTGLRPSGTVSCPICMDGYSEIVQNGRLIVSTECGHVFCSQCLRDSLKNANTCPTCRKKINHKRYHPIYI
MSTRNPQRKRRGGAVNSRQTQKRTRETTSTPEISLEAEPIELVETVGDEIADLTCESLEPVVVDLTHNDSVVIVEERRRPRRNGRRLRQDHADSCVVSSDDEELSKDKDVYVTTHTPRSTKDEGTTGLRPSGTVSCPICMDGYSEIVQNGRLIVSTECGHVFCSQCLRDSLKNANTCPTCRKKINHKRYHPIYI
MSTRNPQRKRRGGAVNSRQTQKRTRETTSTPEISLEAEPIELVETVGDEIVDLTCESLEPVVVDLTHNDSVVIAEERRRPRRNGRRLRQDHADSCVVSSDDEELSKDKDVYVTTHTPRSTKDEGTTGLRPSGTVSCPICMDGYSEIVQNGRLIVSTECGHVFCSQCLRDSLKNANTCPTCRKKINHKRYHPIYI
MSTRNPQRKRRGGAVNSRQTQKRTRETTSTPEISLEAEPIELVETVGDEIVDATCESLEPVVVDLTHNDSVVIVEERRRPRRNGRRLRQDHADSCVVSSDDEELSKDKDVYVTTHTPRSTKDEGTTGLRPSGTVSCPICMDGYSEIVQNGRLIVSTECGHVFCSQCLRDSLKNANTCPTCRKKINHKRYHPIYI
MSTRNPQRKRRGGAVNSRQTQKRTRETTSTPEISLEAEPIELVETVGDEIVDLTCESLEPAVVDLTHNDSVVIVEERRRPRRNGRRLRQDHADSCVVSSDDEELSKDKDVYVTTHTPRSTKDEGTTGLRPSGTVSCPICMDGYSEIVQNGRLIVSTECGHVFCSQCLRDSLKNANTCPTCRKKINHKRYHPIYI
